# Laboratory results published in paper PMC7299955, “GTP hydrolysis by Synechocystis IM30 does not decisively affect its membrane remodeling activity” (Scientific Reports, 2020).
# Where a chain is given by its changes, count along the chain named. In names and notes the source's numbering stands.
# B1: Synechocystis IM30 wild type (inner membrane-associated protein of 30 kDa) (natural protein, Synechocystis sp. PCC 6803, UniProt Q55707 1-267, looked up)
# chain: MGLFDRLGRVVRANLNDLVSKAEDPEKVLEQAVIDMQEDLVQLRQAVARTIAEEKRTEQRLNQDTQEAKKWEDRAKLALTNGEENLAREALARKKSLTDTAAAYQTQLAQQRTMSENLRRNLAALEAKISEAKTKKNMLQARAKAAKANAELQQTLGGLGTSSATSAFERMENKVLDMEATSQAAGELAGFGIENQFAQLEASSGVEDELAALKASMAGGALPGTSAATPQLEAAPVDSSVPANNASQDDAVIDQELDDLRRRLNNL
# notes: IM30 (Vipp1) of the cyanobacterium Synechocystis sp; PCC 6803; Forms high molecular mass homo-oligomers (>300 kDa by SEC); the number of chains in them is not determined here; also called SynIM30; SynIM30 WT; source: E. coli BL21 (DE3), purified (Ni-NTA, Sephadex G25 buffer exchange)
# B2: SynIM30 FERM_EE (E83A, E84A, F168A, E169A, R170A, M171A) (natural protein, Synechocystis sp. PCC 6803, UniProt Q55707 1-267, looked up)
# chain: B1 chain with E83A, E84A, F168A, E169A, R170A, M171A
# notes: IM30 (Vipp1) of Synechocystis sp; PCC 6803 with six mutations brought into the plasmid of IM30 WT; mainly tetramers in buffers of low ionic strength; also called tetrameric SynIM30 variant; source: E. coli BL21 (DE3), purified (Ni-NTA, Sephadex G25 buffer exchange)
# Columns and labels:
# SynIM30 WT [1] = target: T1, SynIM30 WT (Synechocystis sp. PCC 6803, UniProt Q55707); experiment: thermal denaturation, CD at […] nm; assay type: binding; conditions: 0.5 mM GTP with or without 2.5 mM Mg2+; 3.2 µM protein
# T1 construct: gene vipp1; full length, N-terminal His-tag kept (pRSET IM30 WT), E. coli BL21(DE3), Ni-NTA; high molecular mass homo-oligomeric rings
# T1 sequence (Q55707 1-267): B1 chain
# SynIM30 WT [2] = target: T1, SynIM30 WT; experiment: malachite green Pi release; assay type: biochemical; conditions: 0.5 mM GMP-PCP, GTP varied, 2.5 mM Mg2+, 37 °C; competitive or allosteric not resolved
# From the text: malachite green Pi release on SynIM30 WT | […]
# [3] = substrate: Nc1nc2c(ncn2[C@@H]2O[C@H](COP(=O)(O)OP(=O)(O)OP(=O)(O)O)[C@@H](O)[C@H]2O)c(=O)[nH]1; experiment: malachite green Pi release, Hill fit; assay type: biochemical, Synechocystis sp. PCC 6803; conditions: 2.5 mM Mg2+, 20 mM HEPES, 37 °C, 30 min, Hill coefficient 1.29 ± 0.09
# [4] = target: the molecule itself; experiment: SEC; Superose 12 10/300 GL column, 20 mM HEPES pH 7.6, 8 °C, elution followed at 280 nm; calibrated against standards of known size
molecule,measurement,setting,value
Nc1nc2c(ncn2[C@@H]2O[C@H](COP(=O)(O)OP(=O)(O)OP(=O)(O)O)[C@@H](O)[C@H]2O)c(=O)[nH]1 [GTP],Tm,SynIM30 WT [1],This suggests that GTP binding affects the structure and stability of IM30 to some extent
Nc1nc2c(ncn2[C@@H]2O[C@H](COP(=O)(O)OP(=O)(O)CP(=O)(O)O)[C@@H](O)[C@H]2O)c(=O)[nH]1 [GMP-PCP],malachite green Pi release,SynIM30 WT [2],Addition of the non-hydrolyzable GTP analog GMP-PCP
B1,Km,[3],650 ± 140 µM
same,kcat,[3],0.036 ± 0.0055 s⁻¹
same,binding result,[4],binds
B2,stoichiometry N,[4],4
